Consider two substances from patent publication US20260132178A1.

The target in one experiment is IL4 (type II) receptor (UniProt P24394). Nature of the experiment: cell-based or functional assay.
The next experiment concerns the target IL10 receptor (UniProt Q13651). Nature of the experiment: cell-based or functional assay.

Chain of IL10 receptor (Q13651 22-578 limits assumed, chain 1 of 2): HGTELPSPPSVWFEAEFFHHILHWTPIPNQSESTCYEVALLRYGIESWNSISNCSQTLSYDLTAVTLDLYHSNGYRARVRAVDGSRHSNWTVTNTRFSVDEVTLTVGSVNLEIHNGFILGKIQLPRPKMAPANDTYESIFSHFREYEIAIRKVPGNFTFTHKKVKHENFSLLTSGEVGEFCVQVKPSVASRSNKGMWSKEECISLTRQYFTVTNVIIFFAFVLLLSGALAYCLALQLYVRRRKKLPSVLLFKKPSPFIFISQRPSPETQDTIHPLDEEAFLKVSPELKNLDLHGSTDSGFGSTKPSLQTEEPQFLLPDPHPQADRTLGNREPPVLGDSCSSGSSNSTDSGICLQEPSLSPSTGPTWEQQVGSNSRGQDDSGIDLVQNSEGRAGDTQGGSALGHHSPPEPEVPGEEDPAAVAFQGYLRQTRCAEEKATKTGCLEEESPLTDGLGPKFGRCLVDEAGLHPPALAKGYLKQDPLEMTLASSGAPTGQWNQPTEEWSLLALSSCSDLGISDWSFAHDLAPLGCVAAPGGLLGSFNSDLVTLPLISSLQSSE
Chain of IL10 receptor (Q08334 20-325 limits assumed, chain 2 of 2, further chain): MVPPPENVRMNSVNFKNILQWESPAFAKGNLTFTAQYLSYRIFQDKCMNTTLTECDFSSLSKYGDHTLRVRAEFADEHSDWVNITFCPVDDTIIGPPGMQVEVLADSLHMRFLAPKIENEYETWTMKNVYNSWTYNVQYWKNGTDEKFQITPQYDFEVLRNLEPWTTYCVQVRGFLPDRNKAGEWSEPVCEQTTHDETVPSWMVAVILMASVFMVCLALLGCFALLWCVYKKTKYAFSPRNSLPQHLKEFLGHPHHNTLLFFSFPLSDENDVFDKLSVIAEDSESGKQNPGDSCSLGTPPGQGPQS
Chain of IL4 (type II) receptor (P24394 26-825 limits assumed, chain 1 of 2): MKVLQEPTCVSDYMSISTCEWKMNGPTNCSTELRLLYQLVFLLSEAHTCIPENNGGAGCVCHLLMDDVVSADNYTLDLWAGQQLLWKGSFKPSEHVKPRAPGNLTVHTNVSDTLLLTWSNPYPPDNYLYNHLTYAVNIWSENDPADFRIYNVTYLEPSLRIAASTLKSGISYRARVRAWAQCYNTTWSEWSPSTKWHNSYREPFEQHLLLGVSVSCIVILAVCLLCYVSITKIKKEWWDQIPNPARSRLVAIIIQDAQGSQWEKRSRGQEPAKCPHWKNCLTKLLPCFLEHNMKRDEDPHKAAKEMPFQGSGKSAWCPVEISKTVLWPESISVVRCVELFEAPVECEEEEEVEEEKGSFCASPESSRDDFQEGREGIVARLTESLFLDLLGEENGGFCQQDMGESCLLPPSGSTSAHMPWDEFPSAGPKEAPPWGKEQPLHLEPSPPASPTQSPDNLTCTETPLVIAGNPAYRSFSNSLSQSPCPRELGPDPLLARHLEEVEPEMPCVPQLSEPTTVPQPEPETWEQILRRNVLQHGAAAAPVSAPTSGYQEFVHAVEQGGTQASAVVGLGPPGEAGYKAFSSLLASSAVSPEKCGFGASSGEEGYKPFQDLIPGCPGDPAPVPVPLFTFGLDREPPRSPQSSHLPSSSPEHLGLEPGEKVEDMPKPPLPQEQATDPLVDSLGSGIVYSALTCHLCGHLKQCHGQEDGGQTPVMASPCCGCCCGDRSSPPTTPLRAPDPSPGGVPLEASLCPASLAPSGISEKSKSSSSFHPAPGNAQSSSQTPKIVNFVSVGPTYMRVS
Chain of IL4 (type II) receptor (P78552 22-427 limits assumed, chain 2 of 2, further chain): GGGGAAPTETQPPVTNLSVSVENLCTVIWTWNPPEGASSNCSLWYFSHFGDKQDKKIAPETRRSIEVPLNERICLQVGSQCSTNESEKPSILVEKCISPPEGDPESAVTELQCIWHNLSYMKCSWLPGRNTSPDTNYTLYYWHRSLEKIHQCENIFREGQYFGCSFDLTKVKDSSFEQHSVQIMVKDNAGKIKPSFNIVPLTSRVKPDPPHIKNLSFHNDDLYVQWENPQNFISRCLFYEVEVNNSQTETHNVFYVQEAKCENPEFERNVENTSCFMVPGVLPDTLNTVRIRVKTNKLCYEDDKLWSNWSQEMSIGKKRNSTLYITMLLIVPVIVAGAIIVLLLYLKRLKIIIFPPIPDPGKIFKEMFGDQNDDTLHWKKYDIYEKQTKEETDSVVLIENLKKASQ

For the substance “IL13 (from UniProt P35225 33-146) (ligand)”, the HEK-Blue IL4/13 EC50 (STAT6-induced SEAP expression) with IL4 (type II) receptor was found to be 0.033 nM.
On to “IL10 (from UniProt P22301 19-178) (ligand)”, for which, in the experiment with IL10 receptor, the HEK-Blue IL10 EC50 (STAT-3 mediated SEAP expression) is 0.0264 nM.
